Experimental data: patent US20060264369, “Aptamers to von Willebrand Factor and their use as thrombotic disease therapeutics” (published 2006)

T1: von Willebrand factor A1 domain (rabbit) (Oryctolagus cuniculus)
T1 chain: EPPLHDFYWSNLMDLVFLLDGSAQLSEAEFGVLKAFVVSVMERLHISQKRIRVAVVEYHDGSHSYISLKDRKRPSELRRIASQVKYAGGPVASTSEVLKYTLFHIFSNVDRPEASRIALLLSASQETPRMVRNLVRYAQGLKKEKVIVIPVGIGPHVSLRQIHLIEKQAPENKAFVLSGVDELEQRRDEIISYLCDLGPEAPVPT


How the values were obtained:
[1] = molecular target: von Willebrand factor full length (Homo sapiens, UniProt P04275 SEQ:764-2813); assay: filter; 20 nM protein; settings: tags: Calbiochem 681300
Method: (§1) When a significant positive ratio of binding of DNA in the presence of human or rabbit vWF A1 domain versus in the absence of protein was seen, the pools were cloned using the TOPO TA cloning kit (Invitrogen Cat.# 45-0641, Carlsbad, Calif.) according to the manufacturer's instructions. […] All unique clones were assayed twice in a 3-point dot blot screen (no protein target control, 20 nM full length human vWF (Calbiochem Cat.# 681300, La Jolla, Calif.), or 20 nM rabbit vWF A1 domain. The data is presented in the third and fourth columns of Table 17 below as the ratio of the fraction of the aptamer bound to the nitrocellulose in the presence of the target protein to the fraction of aptamer bound in the absence of the target protein.

[2] = molecular target: T1, von Willebrand factor A1 domain (rabbit); assay: filter; 20 nM protein; settings: tags: 6xHis
Method: as §1

[3] = molecular target: T2, von Willebrand factor A1 domain (Homo sapiens, UniProt P04275 SEQ:13-246); assay: filter; DPBS, 0.1 mg/mL BSA, 24 C; settings: label: 5'-32P
Method: Based on this initial screen, KDs were determined for 12 of the best vWF dependent binding sequences using the dot blot assay and are reported in column 5 of Table 4 below.

[4] = molecular target: T2, von Willebrand factor A1 domain; assay: filter; DPBS, 0.1 mg/mL BSA, RT; settings: label: 5'-32P
Method: Based on this initial screen, KD's were determined for 16 of the best vWF dependent binding sequences using the dot blot assay. […] A 6 point protein titration of human vWF A1 domain (SEQ ID NO 5) was used in the dot blot assay (333 nM, 100 nM, 33 nM, 10 nM, 3 nM, 0 nM) in 1× DPBS plus 0.1 mg/mL BSA at room temperature for 30 minutes. KD values were calculated by fitting the equation y=(max/(1+K/protein))+yint using KaleidaGraph (KaleidaGraph v. 3.51, Synergy Software).

[5] = molecular target: von Willebrand factor A1 domain (human) (Homo sapiens, UniProt P04275 SEQ:13-246); assay: filter; 100 nM protein
From the text: When a significant positive ratio of binding of RNA in the presence of human or rabbit vWF A1 domain versus in the absence of protein was seen, the pools were cloned using the TOPO TA cloning kit (Invitrogen, Cat.# 45-0641, Carlsbad, Calif.) according to the manufacturer's instructions. Round 9 and 12 pool templates were cloned and sequenced (125 total sequences), producing 48 unique clones. All unique clones were transcribed, desalted, 5-³²P end-labeled, and assayed in a 3-point dot blot screen (no protein target control, 100 nM human vWF A1 domain (SEQ ID NO 5, FIG. 3), or 100 nM rabbit vWF A1 domain (SEQ ID NO 6, FIG. 3). The data is presented in the third and fourth columns of Table 4 below as the ratio of the fraction of the aptamer bound to the nitrocellulose in the presence of the target protein to the fraction of aptamer bound in the absence of the target protein.

Row | Binder | binding signal [2] | Kd [3] | also measured
1 | AMX238.F5 (ssDNA) DNA: CTACCTACGATCTGACTAGCGGAATGAGAAGCTGGTGGATTGCTCAGGTCTGCTGGCTGCTTACTCTCATGTAGTTCC | 4.4 ratio to no protein |  | binding signal [1]: 1.05 ratio to no protein
2 | AMX201.H3 (ssRNA, 2'-F pyrimidines) RNA: GGAGCGCACUCAGCCACUAACGGUUGAUCUCAGGACUAAAUAGUCAACAAGGAUGCGUUUCGACCUCUCUGCUAGC |  | 90 nM | 
3 | AMX201.G9 (ssRNA, 2'-F pyrimidines) RNA: GGAGCGCACUCAGCCACUAACGGCUGAUCUCAGGACUAAAUAGUCAACAAGGAUGCGUUUCGACCUCUCUGCUAGC |  | 182 nM | 
4 | AMX205.H9 (mixed, 2'-OH purines, deoxy pyrimidines) DNA: GGAGCGCACTCAGCCACGACGGTGATGGATTAGCGCGGTGGAGAAGATGCGCTGTTGTTTCGACCTCTCTGCTAGC |  |  | Kd [4]: 178 nM
5 | AMX236.C1 (ssDNA) DNA: CTACCTACGATCTGACTAGCGGAATGAGAATGTTGGTGGATTGCTCAGGTCTGCTGGCTGCTTACTCTCATGTAGTTCC | 3.28 ratio to no protein |  | binding signal [1]: 1.03 ratio to no protein
6 | AMX237.C1 (ssDNA) DNA: CTACCTACGATCTGACTAGCGGAATGAGGATGCTGGTGGATTGCTCAGGTCTGCTGGCTGCTTACTCTCATGTAGTTCC | 3.47 ratio to no protein |  | binding signal [1]: 0.76 ratio to no protein
7 | AMX236.C6 (ssDNA) DNA: CTACCTACGATCTGACTAGCGGAATGAGAGTGCTGGTGGATTGCTCAGGTCTGCTGGCTGCTTACTCTCATGTAGTTCC | 5.77 ratio to no protein |  | binding signal [1]: 1.06 ratio to no protein
8 | AMX237.B12 (ssDNA) DNA: CTACCTACGATCTGACTAGCGGAATGAGAATGCAGGTGGATTGCTCAGGTCTGCTGGCTGCTTACTCTCATGTAGTTCC | 4.67 ratio to no protein |  | 
9 | AMX238.F6 (ssDNA) DNA: CTACCTACGATCTGACTAGCGGAATGAGTATGCTGGTGGATTGCTCAGGTCTGCTGGCTGCTTACTCTCATGTAGTTCC | 5.36 ratio to no protein |  | 
10 | AMX237.E10 (ssDNA) DNA: CTACCTACGATCTGACTAGCGGAATGAGAATGCTGGTGGATTGCTCAGGTCTGCTGGCTGCTTACTCTCATGTAGTTCC | 6.04 ratio to no protein |  | 
11 | AMX238.A11 (ssDNA) DNA: CTACCTACGATCTGACTAGCGGAATGAGAGTGTTGGTGGATTGCTCAGGTCTGCTGGCTGCTTACTCTCATGTAGTTCC | 4.54 ratio to no protein |  | binding signal [1]: 0.85 ratio to no protein
12 | AMX236.E2 (ssDNA) DNA: CTACCTACGATCTGACTAGCGGAATGAGTATGCTGATGGATTGCTCAGGTCTGCTGGCTGCTTACTCTCATGTAGTTCC | 3.59 ratio to no protein |  | binding signal [1]: 0.93 ratio to no protein
13 | AMX238.A6 (ssDNA) DNA: CTACCTACGATCTGACTAGCGGAATGAGAATGCAGATGGATTGCTCAGGTCTGCTGGCTGCTTACTCTCATGTAGTTCC | 3.47 ratio to no protein |  | binding signal [1]: 0.92 ratio to no protein
14 | AMX198.C10 (ssRNA, 2'-F pyrimidines) RNA: GGAGCGCACUCAGCCACUGGUCCUUAGCUAGUUGUACUAGCGACGCGUUCAGGUGGUUUCGACCUCUCUGCUAGC |  | 555 nM | 
15 | AMX205.H10 (mixed, 2'-OH purines, deoxy pyrimidines) DNA: GGAGCGCACTCAGCCACTGTTGCCGACGGTGATGTATTAACGCGGGCAACGTTGGTGTTTCGACCTCTCTGCTAGC |  |  | Kd [4]: 397 nM
16 | AMX198.E11 (ssRNA, 2'-F pyrimidines) RNA: GGAGCGCACUCAGCCACGGUAACAUUGUUUCCGGCGAUUCUUUGAACGCCGUCGUGGUUUCGACCUCUCUGCUAGC |  | 1060 nM | 
17 | AMX201.H11 (ssRNA, 2'-F pyrimidines) RNA: GGAGCGCACUCAGCCACCCUGUCGUCUUUUGGUAGUCAGCCAAAAGCUAGUUGGUUGUUUCGACCUCUCUGCUAGC |  |  | binding signal [5]: 1.75 ratio to no protein

Row | Binder | binding signal [2] | Kd [3] | also measured
18 | AMX198.G1 (ssRNA, 2'-F pyrimidines) RNA: GGAGCGCACUCAGCCACAACACUAAUGGGGAAAGUUCAAGGAUUCUUGACCGGUGCGUUUCGACCUCUCUGCUAGC |  | 45 nM | 
19 | AMX201.C8 (ARC840) (ssRNA, 2'-F pyrimidines) RNA: GGAGCGCACUCAGCCACCCUCGCAAGCAUUUUAAGAAUGACUUGUGCCGCUGGCUGUUUUCGACCUCUCUGCUAGC |  | 0.2 nM | 
20 | AMX201.H1 (ssRNA, 2'-F pyrimidines) RNA: GGAGCGCACUCAGCCACUUUACGGUGAAAGUCUCUCGGGGUUCCGAGUUACGGUGCGUUUCGACCUCUCUGCUAGC |  | 189 nM | 
21 | AMX201.H4 (ssRNA, 2'-F pyrimidines) RNA: GGAGCGCACUCAGCCACUAACGGUUGAUCUCAGGACUAAUAGUCAACAAGGAUGCGUUUCGACCUCUCUGCUAGC |  |  | binding signal [5]: 1.79 ratio to no protein
22 | AMX198.A10 (ssRNA, 2'-F pyrimidines) RNA: GGAGCGCACUCAGCCACCAGUUAUGCUGGCUUUGGUCUUUGACUGUCUGAGUGUUCGUUUCGACCUCUCUGCUAGC |  | 1860 nM | 
23 | AMX201.B11 (ssRNA, 2'-F pyrimidines) RNA: GGAGCGCACUCAGCCACACCGAGGCUGGAUAUCUACGAGAGGAAGUGCUGCUUGAAUUUCGACCUCUCUGCUAGC |  |  | binding signal [5]: 1.55 ratio to no protein
24 | AMX201.D10 (ssRNA, 2'-F pyrimidines) RNA: GGAGCGCACUCAGCCACACUGAGGCUGGAUAUCUACGAGAGGAAGUGCUGCUUGGAUUUCGACCUCUCUGCUAGC |  |  | binding signal [5]: 1.59 ratio to no protein
25 | AMX203.G9 (ARC842) (mixed, 2'-OH purines, deoxy pyrimidines) DNA: GGAGCGCACTCAGCCACGGGGTGGGTAGACGGCGGGTATGTGGCTGGTGTCGAAGGGTTTCGACCTCTCTGCTAGC |  |  | Kd [4]: 1.3 nM
26 | AMX198.E5 (ssRNA, 2'-F pyrimidines) RNA: GGAGCGCACUCAGCCACUUCGACUUUCAUGUCUGAAGUCCCUGCAGUGCGAGAGACGUUUCGACCUCUCUGCUAGC |  | 172 nM | 
27 | AMX201.B1 (ssRNA, 2'-F pyrimidines) RNA: GGAGCGCACUCAGCCACAGAGCCCUGAGUGUAUGAUCGCCUAGAUCUAUCGAUGCUUUUUCGACCUCUCUGCUAGC |  | 19 nM | 
28 | AMX201.B3 (ssRNA, 2'-F pyrimidines) RNA: GGAGCGCACUCAGCCACAGAGCCCUGAGUGUAUGAUCGCCGAGAUCUAUCGAUGCUUUUUCGACCUCUCUGCUAGC |  |  | binding signal [5]: 1.69 ratio to no protein
29 | AMX198.C6 (ssRNA, 2'-F pyrimidines) RNA: GGAGCGCACUCAGCCACGGUGGUCAGUCAGUGAUAUGAUUAAGUUCAGCUGUGGCUGUUUCGACCUCUCUGCUAGC |  | 249 nM | 
30 | AMX206.D8 (mixed, 2'-OH purines, deoxy pyrimidines) DNA: GGAGCGCACTCAGCCACGACGGTGATGGATTAGCGCGGTGGATCTTAACGTGCGAGTTTCGACCTCTCTGCTAGC |  |  | Kd [4]: 370 nM
31 | AMX205.F7 (ARC841) (mixed, 2'-OH purines, deoxy pyrimidines) DNA: GGAGCGCACTCAGCCACACGACATTGGCGGGTTGTAATTACCACGCATGGCTGTTTGTTTCGACCTCTCTGCTAGC |  |  | Kd [4]: 1.5 nM
32 | AMX201.D4 (ssRNA, 2'-F pyrimidines) RNA: GGAGCGCACUCAGCCACUGGGGCUGAUCUCGCACGAUAGUUCGUGUCAAGGAUGCGUUUUCGACCUCUCUGCUAGC |  |  | binding signal [5]: 2.23 ratio to no protein
33 | AMX201.G1 (ssRNA, 2'-F pyrimidines) RNA: GGAGCGCACUCAGCCACGCUCGGUGGGGAAAUUUUAGCCUAAUUGGCUACUUGUGCGUUUCGACCUCUCUGCUAGC |  | 190 nM | 
